Measurements as given in the Immune Epitope Database (IEDB).

How the values were obtained:
HLA-A*68:02 [1] = experiment: IEDB peptide-MHC binding, purified MHC/competitive/radioactivity; ≥ and ≤ were set here for values at or beyond the usual limits of such assays
HLA-A*02:06 [2] = experiment: as above
HLA-A*02:02 [3] = experiment: as above
HLA-A*02:01 [4] = experiment: as above
HLA-A*02:03 [5] = experiment: IEDB peptide-MHC binding, cellular MHC/competitive/fluorescence; ≥ and ≤ were set here for values at or beyond the usual limits of such assays
HLA-A*02:01 [6] = experiment: as above
HLA-A*02:03 [7] = experiment: IEDB peptide-MHC binding, purified MHC/competitive/radioactivity; ≥ and ≤ were set here for values at or beyond the usual limits of such assays; settings: source organism: Vaccinia virus WR
HLA-A*68:02 [8] = experiment: IEDB peptide-MHC binding, cellular MHC/competitive/fluorescence; ≥ and ≤ were set here for values at or beyond the usual limits of such assays; settings: source organism: Vaccinia virus WR
HLA-A*02:06 [9] = experiment: as above; settings: source organism: Vaccinia virus WR
HLA-A*02:02 [10] = experiment: as above; settings: source organism: Vaccinia virus WR
[11] = source organism: Vaccinia virus WR
[12] = source organism: Mammarenavirus brazilense
[13] = source organism: Mammarenavirus guanaritoense

Row | Sequence | IC50 (HLA-A*68:02 [1]; [11]) [nM] | IC50 (HLA-A*02:06 [2]; [11]) [nM] | IC50 (HLA-A*02:02 [3]; [11]) [nM] | IC50 (HLA-A*02:01 [4]; [11]) [nM] | IC50 (HLA-A*02:03 [5]; [11]) [nM] | IC50 (HLA-A*02:01 [6]; [11]) [nM] | further results
1 | IVNTTYDFLA | 991 | 956 | 1250 | 2390 | 8270 | – | –
2 | SNPNLFWAV | – | – | – | – | – | – | IC50 (HLA-A*68:02 [1]; [12]): 79 nM; IC50 (HLA-A*02:06 [2]; [12]): 35 nM; IC50 (HLA-A*02:02 [3]; [12]): 170 nM; IC50 (HLA-A*02:01 [4]; [12]): 1460 nM; IC50 (HLA-A*02:03 [5]; [12]): 6160 nM
3 | DISSFYWSL | 28 | 3970 | 391 | – | 6870 | 8510 | –
4 | TNAEFTFQL | – | – | – | – | – | – | IC50 (HLA-A*68:02 [1]; [13]): 5.3 nM; IC50 (HLA-A*02:06 [2]; [13]): 3620 nM; IC50 (HLA-A*02:02 [3]; [13]): 404 nM; IC50 (HLA-A*02:03 [5]; [13]): 15100 nM; IC50 (HLA-A*02:01 [6]; [13]): 5020 nM
5 | WSAIFFTTSL | – | – | – | – | – | – | IC50 (HLA-A*68:02 [1]; [13]): 300 nM; IC50 (HLA-A*02:06 [2]; [13]): 1410 nM; IC50 (HLA-A*02:02 [3]; [13]): 2000 nM; IC50 (HLA-A*02:03 [5]; [13]): 6990 nM; IC50 (HLA-A*02:01 [6]; [13]): 9090 nM
6 | DIPTFNSLNT | 900 | 45 | 2020 | – | 16600 | 23000 | –
7 | IAGGVCYYLL | 268 | 656 | 4580 | 174 | 14600 | – | –
8 | YAVLSEYETM | 4160 | 1210 | 157 | – | 9630 | 5510 | –
9 | CVDHPFIYVI | 791 | 1610 | 964 | 2890 | 10800 | – | –
10 | FVKKMLPKII | – | – | – | – | – | 32700 | IC50 (HLA-A*02:03 [7]): 1140 nM; IC50 (HLA-A*68:02 [8]): 14100 nM; IC50 (HLA-A*02:06 [9]): 6720 nM; IC50 (HLA-A*02:02 [10]): 11100 nM
11 | ITVGMLIYSM | 611 | 97 | 47 | 167 | 6110 | – | –
12 | LISSDGARVI | – | – | – | – | – | 12700 | IC50 (HLA-A*02:03 [7]): 1150 nM; IC50 (HLA-A*68:02 [8]): 17900 nM; IC50 (HLA-A*02:06 [9]): 34900 nM; IC50 (HLA-A*02:02 [10]): 7180 nM
13 | VTKRDESSI | – | – | – | – | – | ≥ 70000 | IC50 (HLA-A*02:03 [7]): 2140 nM; IC50 (HLA-A*68:02 [8]): 8100 nM; IC50 (HLA-A*02:06 [9]): 38100 nM; IC50 (HLA-A*02:02 [10]): 8050 nM
